We go through 40 sequences from the nanobody polyreactivity screen of Harvey et al. (2022).

The nature of this data set: yeast display, Sf9 membrane polyspecificity reagent, FACS + sequencing; frameworks hold sequencing errors. The method in brief: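 In a synthetic yeast display library (Saccharomyces cerevisiae BJ5465), nanobody expression was induced with galactose for 36–48 hours. FACS gates were set low and high (top ~1%) using anti-HA fluorescence for expression and streptavidin fluorescence for binding of the Sf9 membrane reagent. Each polyreactivity label is drawn from the gate of origin.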
Regarding “QVQLVESGGGLVQAGGSLRLSCAASGRTFGPYAMGWYRQPPGKEREFVAAISYSGGSTYYADSVKGRLTISRDNAKNTVDLQMNSLKPEVTAVYYCAVDIDANSGTRDYWGQGTQVTVSS”, the “polyreactivity (PSR sort gate)” value is recorded as “low polyreactivity”. With “QVQLVESGGGLVQAGGSLRLSCAASGRIFTSNAMGWYRQAPGKERELVASITSSSSTNYADSVKGRFTLSRDNAKNTVYLQMNSLKPEDTAVYYCAAERVWPYGHDYWGQGTQVTVSS”, the “polyreactivity (PSR sort gate)” value is on record as “low polyreactivity”.

Consider “QVQLVESGGGIVQAGGSLRLSCAASGRTFYYYAMGWYRQAPGKERELVASISWSGGSTYYADSVKGRFTISRDNAKNTVYLQMNSLKPEDTAVYYCNAQYHTYRWLYAVYLSGDYWGQGTQVTVSS”, for which the “polyreactivity (PSR sort gate)” value is reported as “low polyreactivity”. As for “QVQLVESGGGLVQAGGSLRLSCPASGGNFPFNGMGWSRQAPGKERELVAAISSGGRTYYADSVKGRFTISRDNAKNTVYLQMNSLKPEDTAVYYCAARTSRYYYYPYAFYWGQGTQVTVSS”, the entry is “high polyreactivity”; as for “QVQLVESGGGLVQAGGSLRLSCAASGRIFYPYVMGWYRQAPGKERELVAAISDSTGSTYYADSVKGRFTISRDNAKNTVYLQMNSLKPEDTAVYYCAAGWFYATYWRFYYWGQGTQVTVSS”, “low polyreactivity”. Regarding “QVQLVESGGGLVQAGGSLRFSSPASGGTFFVNAMGWYRQAPGKERELVASITLSGGSSYYADSVKGRFTISRDNAKNTVYLQMNSLKPEDTAVYYCAKGWTRDNEREREDEYWGQGTQGTVSS”, the “polyreactivity (PSR sort gate)” value is “low polyreactivity”. Consider “QVQLVESGGGLDQAGGSLRLSCAASGFIFGRYTMVWYRPAPGKEMELVAAISRGGITNYADSEKGRFTISRDNAKNTVYLQMNSLKPEDTAVYYCATTRDYWRGRSYYYWGQGTQVTVSS”, for which the “polyreactivity (PSR sort gate)” value was “high polyreactivity”. As for “QVQLVESGGGLVQAGGSLRLSCAASGSTIPLYAMGWYRQAPGKERELVAAISRRGGRTYYADSVKGRFTISRDNAKNTVYLQMNSLKPEDTAVYYCATAVGSRVDYWGQGTQVTVSS”, the entry is “high polyreactivity”; as for “QVQLVESGGGLVQAGGSLRLSCAASGSTFRRYTMGWYRQAPGKERELLAAISSGGSTYYADSVKGRFTISRDNAKNTVYLQMNSLNPEDTAVYYCAAKNYPLTRYWRYDYSEYYYWGQATQVTVSS”, “high polyreactivity”; as for “QVQLVESAGGLVQAGGSLRLSSAASGRIFKYNAMGWYRQAPGKERELVAAISSSGARTYYADSVKGRFTISRDNAKNTVYLQMNSLKPEDTAVYYCAVYYYDFTSTEYGYWGLGTQVTVSS”, “high polyreactivity”. As for “QVQLVESGGGLVQAGGSLRLSCAASGFIFRWYTLGWYRQAPGKERELVAAISRSGGSTYYADSVKGRFTISRDNAKNTVYLQMNSLKPEDTAVYYCNAYDHPIYRLDYWGQGTQVTVSS”, the “polyreactivity (PSR sort gate)” value is on record as “high polyreactivity”.

“QVQLVESGGGLVQAGGSLRLSCAASGFTFVAYAMGWYRQAPGKERELVAALRRTGGSSSYADSVKGRFTISRDIAKNTVYLQMNRLKPEDTSVYYCNKVRLISGVYWSYQAFGYWGQGTQVTVSS”: the “polyreactivity (PSR sort gate)” value was “high polyreactivity”.

Regarding “QVQLVESGGGLVQAGGSLRLSCAASGSTFYWNAMGWYRQAPGKESEFVARISSRGGSTYYADSVKGRFTISRDNAKNTVYLQMNSLKPEDTAVYYCAARLRRTQTYSSGRPGDYWGQGTQVTVSS”, the “polyreactivity (PSR sort gate)” value is reported as “high polyreactivity”. For “QVQLVESGGGLVQAGGSLRLSCAASGFTFWRYAMGRYRQAPGKERELVAGISSGGSTNYADSVKGRFTISRDNAKNTVYLQMNSLKPEDTAVYYCAARGNYFYGIYGYWGQGTQVTVSS” the value was “low polyreactivity”; for “QVQLVESGGGLVQAGGSLRLSCAASGFIFSLYAMGWYRQAPGKERELVAAITRSGGSTYYADSVKGRFTISRDNAKNTVYLQMNSLKPEDTAVYYCAASRGRGGYGFDYWGQGTQVTVSS”, “high polyreactivity”; for “QVQLVESGGGLVLAGGSLRLSCAASGRILGSYAMGWYRQAPGKERELVAGISWRGGRTSYADSVKGRFTISRDNAKNPVYLQMNSLKPEDTAVYYCATRSSSRKYGYWGQGTQVTVSS”, “high polyreactivity”. For “QVQLVESGGGLVQAGGSLRLSCAASGFIFWWYGMGWYRPAPGKEREFVAAITQSGSTYYADSVKGRFTISRDNAKNTVYLQMNSLKPEDTAVYYCADVVGRRLYPRYDYWGQGTQVTVSS” the value was “high polyreactivity”; for “QVQLVKSGGGLVQAGGSLRLSCAASGFIIPEYTMGWYRQAPGKERELVAAISGSGGSTYYADSVKGRFTISRDNAKNTVYLQMNSLKPEDTAVYYCAASYAVSRYLQTYAHAHGYWGQGTQVTVSS”, “low polyreactivity”.

For the sequence “QVQLVESGGGLVQAGGSLRLSCAASGIISSVYAMGWYRQAPVKERELVAAISGSGGSTYYADSVKGRFTISRDNAKNTVYLQMNSLTPEDTAVYYCAKGYQYQGNSYGYWGQGTQVTVSS”, the “polyreactivity (PSR sort gate)” value is “low polyreactivity”. In the case of “QVQLVESGGGLVQAGGSLRLSCAASGFIFATYTMGWYRQAPGKERELVAAITWRGGSTYYADSVKGRFTISRDNAKNTVYLQMNSLKPEDTAVYYCAAPDVYSYRYVEDDYWGQGTQVTVSS”, the “polyreactivity (PSR sort gate)” value is reported as “low polyreactivity”. Take “QVQHVESGGGLVQAGGSLLLSCAASGSIFGGNAKGWYRQAPGKERELVAVITSRGGSTYYADSVKGRFTISRDNAKNTVSLQMNSLKPEDTAVYYCNKRYLNRREGTDDYWGQGTQVTVSS”: the “polyreactivity (PSR sort gate)” value is reported as “high polyreactivity”. For the sequence “QVQLVESGGGLVQAGGSLRLSCAASGRTLLPNAMGWYRPAPGKERELVADISTSDGSTRYADSVKGRFTISRDNAKNTVYLQMNSLKPEDTAVYYCAAGSEYYSYGGVRFSFYYWGQGTQVTVSS”, the “polyreactivity (PSR sort gate)” value is “low polyreactivity”. On to “QVQLVESGGGLVQAGGSLRLSCAASGLTLAGYAMGWYRQAPGKERELVAAITASGVRTYYADSVKGRFTISRDNAKNTVYLQMNSLKPEDTAVYYCAAGVQTQRGGYAIYRPGLRYYWGQGTQVTVSS”, for which the “polyreactivity (PSR sort gate)” value is “high polyreactivity”. As for “QVQLVESGGGLVQAGGSLRLSCAASGSIFYAYAMGWYRQAPGKERELVATITSGGSTNYADSVKGRFTISRDNAKNTVYLQMNSLKPEDTAVYYCAVDISYSLGGGFGYDYWGQGTQVTVSS”, the entry is “low polyreactivity”; as for “QVQLVESGGRLVQPGGSLRLSCAASGRTFVLNAIGWYRQAPGKEREFVAAISWGGVRTDYADSVKGRFTISRDNAKNTVYLQMNSLKPEDTAVYYCATSGSRYRRYDYWGQGTQVTVSS”, “high polyreactivity”. For “QVQLVESGGGLVQGGGSLRLSFAGSGFTFGRYLMGWYSQAPGKERELVAAISRSGGSTHYADSVKGRFTISRDYAMNHFYLQMNSLKPEDTAVYYCAAASPRWPGQGDYWGQGTQVTVSS” the value was “high polyreactivity”. Consider “QVQLVESGGGLVQAGGSLRLSCAASGSIFAAYAMGWYRQAPGKERELVAAISLDDGSTYADSVKGRFTISRDNAKNTVYLQMNSLKPEDTAVYYCNARYKSRLYPRYDYWGQGTQVTVSS”, for which the “polyreactivity (PSR sort gate)” value was “high polyreactivity”. In the case of “QVQLVESGGGLVQAGGSLRLSCAASGNTFAYNTMGWYRQAPGKERELVAAIRTRGGSTYYADSVKGRFTISRDNAKNTVYLQMNSLKPEDTAVYYCAADYRYHGYWSYDYWGQGTQVTVSS”, the “polyreactivity (PSR sort gate)” value is “low polyreactivity”. For the sequence “QVQLLESGGGLVQAGGSLRLSCAASGLTVYGYVMAWYRHAPGKERELVASISRSGCRTYYADSVKGRFTISRDNEKNTVYLQMNSLKPEDTAVYYCAADDQVGQEDDYWGQGTQVTVSS”, the “polyreactivity (PSR sort gate)” value was “low polyreactivity”. As to “QVQLVESGGGLVQAGGSLRLSCAASGSIFSDYGMGWYRQAPGKERELVAGISWNGTSTYYADSVKGRFTISRDNAKNTVYLQMNSLKPEDTAVYYCAATFEGGISDLLDLDYWGQGTQVTVSS”, the “polyreactivity (PSR sort gate)” value is “low polyreactivity”. As for “QVQLVESGGGLVQAGGSLRLSCAASGRILTYYAMGWYRQAPGKERELVAAISWRAGYTYYADSVKGRFTISRDNAKNTVYLQMNSLKPEDTAVYYCAAETSNRGRRYYYWGQGTQVTVSS”, the entry is “high polyreactivity”; as for “QVQLVESGGGLVQAGGSLRLSCAASGRIFKWYAMGWYRQAPGKERELVAAITSGGGSTYYADSVKGRFTISRDNAKNTVYLQMNSLKPEDTAVYYCNSWSSYGYDYWGQGTQVTVSS”, “high polyreactivity”. For “QVQLVESGGGLVQAGGSLRLSCAASGFIFGRNAMGWYRQAPGKERELVAGISSRGGRTYYADSVKGRFTISRDNAKNTVYLQMNSLKPEDTAVYYCAAAGLTDYVRYDYWGQGTQVTVSS” the value was “high polyreactivity”; for “QVQLVESGGGLVQAGGSLRLSCAASGSTFDYYDMGWYRQSPGKERELVAAISSGGDSTYYADSVKGRFTISRDNAKNTVYLQMNSLKPEDTAVYNCAAAVYYGQSVWYYYWGQGTQVTVSS”, “high polyreactivity”. Take “QVQLVESGGGLVQAGGSLRLICAASGSTFQDYGMGWYRQAPGKERELVAAITTGDITNYADSVKGRFTISRDNAKKTVYLQMNSLKAEDTAVYYCNAEPKFYPDAGDDYWGQGTQVTVSS”: the “polyreactivity (PSR sort gate)” value is “low polyreactivity”. For “QVQLVESCGGLVQPGGSLRLSCAASGSILKSYAMGWYRKAPGKERELVAAITYRDGSTYYADSVKGRFTISRDNSKNTVYLQMNSLKPEDTAVYYCAAEPSWWNVFYPGYNYWGQGTQVTVSS” the value was “high polyreactivity”; for “QVQLVESAGGLVQAGGSLRLSCAASGNTFYPYAMGWYRQAPGKERELVAAITSVGRTYYADSVKGRFTITRDNAKNTVYLQMNSLKPEDTAVYYCAAVVYYRGYTYNYWGQGTQVTVSS”, “high polyreactivity”; for “QGQLVETGGGLVQAGGSLRLSCAASGSTFSYYAMGWYRQAPGKEREWVAAISRRGGSTYYADSVKGRFTISRDNAKNTVYLQMISLKPEDTAVNYCAADDYYSSRIEYYNWGQGTQVTVSS”, “high polyreactivity”. For the sequence “QVQLVESGGGLVQAGGSLRLSCAASGSTFGVNAMGWYRQAPGKERELVAVITRSGGSTYYADSVKGRFTISRDNAKNTVYLQMNSLKPEDTAVYYCATSGVVDWGQGTQVTVSS”, the “polyreactivity (PSR sort gate)” value is given as “low polyreactivity”. As for “QVQLVESGGGLVQAGGSLRLSCAASGRTFKYYAMGWYRQAPGKERELVAAISRSGGSTYADSVKGRFTISRDNAKNTVYLQMNSLKPEDTAVYYCATGWWRQGVASFDYDYWGQGTQVTVSS”, the entry is “high polyreactivity”.
